In patent publication US20150266963A1 (ARGEN X B V, published 2015):
Residue numbers refer to the chain shown, from its start. Values belong to the binder of their own block, whether it stands above or below them.

Columns and labels:
[1] = target: T1, human CD70 expressed on the surface of cells (human, UniProt P32970 1-193); experiment: cell-based or functional assay
T1 sequence (looked up): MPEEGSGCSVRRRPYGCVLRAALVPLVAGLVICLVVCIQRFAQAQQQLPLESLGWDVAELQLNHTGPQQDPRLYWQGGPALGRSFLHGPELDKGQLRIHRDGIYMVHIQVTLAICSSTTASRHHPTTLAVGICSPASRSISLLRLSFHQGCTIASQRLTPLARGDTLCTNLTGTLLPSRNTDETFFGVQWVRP

[2] = target: T1, human CD70 expressed on the surface of …; experiment: flow cytometry on 786-O cells, anti-human Fc-FITC
Description: Fluorescence of 10,000 cells/condition was measured using a flow cytometer and the median fluorescence was plotted.

[3] = target: T2, recombinant human CD70 (Flag-TNC-CD70) (human, UniProt P32970 39-193); experiment: inhibition ELISA; Flag-TNC-CD70 captured by anti-Flag mAb; competitor CD27-Fc
T2 construct: extracellular domain; Captured by anti-Flag mAb in ELISA; as 'recombinant human CD70' immobilised on Biacore CM5 chips; TNC is for trimerisation; also called recombinant CD70; human recombinant CD70; not shown: Flag tag and TNC trimerisation domain
T2 sequence (looked up): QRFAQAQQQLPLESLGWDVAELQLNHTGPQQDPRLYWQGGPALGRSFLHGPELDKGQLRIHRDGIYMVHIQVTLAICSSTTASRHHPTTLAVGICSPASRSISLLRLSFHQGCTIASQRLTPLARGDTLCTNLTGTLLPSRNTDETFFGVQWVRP
Description: From selected phage transfected into TG1, individual colonies were picked randomly for growth in 96 well plates. After IPTG induction according to standard protocols periplasmic fractions (penis) containing Fabs were prepared. […] In this assay, Flag-TNC-CD70 is captured by an anti-Flag mAb and binding of CD27-Fc is detected via a biotinylated anti-CD27 mAb and strep-HRP in the absence or presence of CD70 Fabs (FIGS. 2 and 3) or CD70 mAbs (FIG. 4). In FIG. 2B it can be seen that 27B3, which has an identical VH as 9D1, but contains a somewhat different light chain, seems to block binding of CD27 to CD70 more efficiently, which was in line with the better off rate of this Fab as measured on Biacore (data not shown). Table 3 indicates the blocking potency (expressed as IC50) for the various llama-human chimeric mAbs tested in the CD70 inhibition ELISA. […] FIG. 3 is a composite of an experiment testing llama CD70 Fabs for blocking activity (in the inhibition ELISA, see white bars) and for CD70 binding (binding ELISA, black bars). For the binding ELISA, Flag-TNC-CD70 is captured by an anti-Flag mAb and binding of the Fabs is detected using an anti-myc-HRP mAb, which recognizes the MYC tag fused to the C-terminus of the Fd fragment. For comparison purposes, known monoclonal antibodies to CD70 (SGN70 described in US 2010/0129362 A1, clone 1F6; and MDX69A7 described in WO2008/074004 FIGS. 5A and 5B) were tested in parallel. […] Of interest is clone 59D10, which as Fab has no blocking activity, but when converted into a chimeric IgG was antagonistic (see Table 3). Amino acid sequences of the VH and VL domains of binding and blocking llama-derived Fab clones are shown elsewhere herein (Tables 6-9).

[4] = target: T3, recombinant human CD27 Fc chimera (CD27-Fc) (human, UniProt P26842 21-192); experiment: ELISA; captured Flag-TNC-CD70
T3 construct: Bought reagent; also called recombinant CD27-Fc; Fc part of the bought chimera not given
T3 sequence (looked up): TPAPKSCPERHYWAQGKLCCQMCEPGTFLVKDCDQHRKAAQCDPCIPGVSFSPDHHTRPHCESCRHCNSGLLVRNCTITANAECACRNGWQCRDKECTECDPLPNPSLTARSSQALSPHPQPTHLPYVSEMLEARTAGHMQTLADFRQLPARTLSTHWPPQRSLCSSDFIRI

[5] = target: T1, human CD70 expressed on the surface of …; experiment: cell-based or functional assay; remark: listed apart in the source
[6] = target: T4, heat denatured recombinant CD70 (human, UniProt P32970 52-193, limits assumed); experiment: ELISA on coated heat denatured recombinant CD70, anti-human IgG-HRP
T4 construct: Same recombinant CD70 as m1, denatured by heating for 5 minutes at 95 C and cooling on ice, coated directly on the plate; also called denatured CD70; not shown: Flag tag (anti-Flag mAb was the coating control) and further fusion parts
T4 sequence (looked up): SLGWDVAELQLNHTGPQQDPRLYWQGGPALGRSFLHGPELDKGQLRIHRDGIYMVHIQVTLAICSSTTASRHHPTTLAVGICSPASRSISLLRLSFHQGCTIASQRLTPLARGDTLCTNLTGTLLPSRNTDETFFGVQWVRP
Description: The binding of CD70 mAbs to denatured recombinant CD70 was assessed by ELISA. Recombinant CD70 was denatured by heating for 5 minutes at 95° C., followed by immediate cooling on ice for 5 minutes. A microtiter plate was coated with 5 μg/ml CD70 with or without denaturation. The plate was blocked and the CD70 mAbs for testing were applied at 10 μg/ml. After washing, binding of the mAbs was detected using anti-human IgG-HRP. As a positive control for the coating, instead of using the CD70 mAbs, an anti-Flag mouse-derived mAb was applied and detection was with anti-mouse-HRP. TMB was used as a substrate and OD at 620 nm was measured. […] Amongst the other mAbs, some are also binding to denatured CD70 (fe 5F4, 9G2, 57B6).

IC50 (ng/ml), IL-8 secretion in Raji / HT1080-CD27 co-culture assay [1]: 32 ng/mL
EC50 (read off the curve) [2]: ~0.2 µg/mL
IC50 [3]: 0.296 µg/mL
B1: 5F4 chimeric llama-human mAb (antibody, human IgG1, V domains shown)
VH: EVQVQESGGGLVHPGGSLKLSCAASGFTFDTYAMSWVRQAPGKGLEWVSAISWSGGETFYAESMKGRFTISRNNAKNTLYLQMNSLKSEDTAVYYCARGMGLAEGLTDWGQGTQVTVSS
VL: QAVVTHPPSLSASPGSSVRLTCTLISGDNIGGYDISWYQQKTGSPPRYLLYYYSDSYKHQSSGVPSRFSGSKDASANAGLLLISGLQSEDEADYYCSAYKSGSYKAPVFGGGTHLTVLG

binding result [4]: binds
B2: human-mouse CD70 chimera chim-1 (Flag-TNC-CD70) (ligand)
chain: HPEPHTAELQLNLTVPRKDPTLRWGAGPALGRSFLHGPELDKGQLRIHRDGIYMVHIQVTLAICSSTTASRHHPTTLAVGICSPASRSISLLRLSFHQGCTIASQRLTPLARGDTLCTNLTGTLLPSRNTDETFFGVQWVRP
modifications: Soluble homotrimer held by the TNC domain; one CD70 ECD chain is given.
notes: also called chimera 1; not shown: N-terminal Flag tag, TNC (tenascin-C) trimerisation domain and any linkers of the Flag-TNC-CD70 construct

binding result [4]: binds
B3: human-mouse CD70 chimera chim-2.2 (Flag-TNC-CD70) (ligand)
chain: B2 chain with L35T, D41E, K42E, Q44H
notes: also called chimera 2.2; not shown: N-terminal Flag tag, TNC trimerisation domain and any linkers of the Flag-TNC-CD70 construct

binding result [4]: binds
B4: human-mouse CD70 chimera chim-2.1 (Flag-TNC-CD70) (ligand)
chain: B2 chain with L35T
modifications: Soluble homotrimer held by the TNC domain; one CD70 ECD chain is given.
notes: also called chimera 2.1; not shown: N-terminal Flag tag, TNC (tenascin-C) trimerisation domain and any linkers of the Flag-TNC-CD70 construct

binding result [4]: binds
B5: human-mouse CD70 chimera chim-2.4 (Flag-TNC-CD70) (ligand, not shown: small tags and cut ends)
chain: B2 chain with L35T, D41E, K42E, Q44H, R49Q, I52L, M54R, V55L
notes: also called chimera 2.4

binding result [4]: binds
B6: human-mouse CD70 chimera chim-2 (Flag-TNC-CD70) (ligand, not shown: small tags and cut ends)
chain: B2 chain with L35T, D41E, K42E, Q44H, R49Q, I52L, M54R, V55L, I63N
notes: also called chimera 2

Raji co-culture assay IC50 relative to 27B3 [5]: 0.8 fold of 27B3
B7: 53A2 mAb (full-length human IgG1, HEK293) (antibody, V domains shown)
VH: EVQLVESGGGLVQPGGSLRLSCAASGFTFSVYYMNWVRQAPGKGLEWVSDINNEGGTTYYADSVKGRFTISRDNSKNSLYLQMNSLRAEDTAVYYCARDAGYSNHVPIFDSWGQGTLVTVSS
VL: QAVVTQEPSFSVSPGGTVTLTCGLKSGSVTSDNFPTWYQQTPGQAPRLLIYNTNTRHSGVPDRFSGSILGNKAALTITGAQADDEAEYFCALFISNPSVEFGGGTQLTVLG

Raji co-culture assay IC50 relative to 27B3 [5]: 1.6 fold of 27B3
B8: 53H1 mAb (full-length human IgG1, HEK293) (antibody, V domains shown)
VH: B7 VH
VL: B7 VL with A2T

Raji co-culture assay IC50 relative to 27B3 [5]: 1.2 fold of 27B3
B9: 41D12 mAb (full-length human IgG1, HEK293) (antibody, V domains shown)
VH: B7 VH
VL: B7 VL with F10L, S11T

Raji co-culture assay IC50 relative to 27B3 [5]: 1.4 fold of 27B3
B10: 35G2 mAb (full-length human IgG1, HEK293) (antibody, V domains shown)
VH: B7 VH with S75A, S78T, R87K, A88P
VL: B7 VL with A2T, D32T, T55S, E87D

Raji co-culture assay IC50 relative to 27B3 [5]: 1.8 fold of 27B3
B11: 40F1 mAb (full-length human IgG1, HEK293) (antibody, V domains shown)
VH: B7 VH with T57A, L117Q
VL: B7 VL

IC50 (ng/ml), IL-8 secretion in Raji / HT1080-CD27 co-culture assay [1]: 16 ng/mL
binding result [6]: no binding (tested: 10 µg/ml (text))
IC50 [3]: 0.075 µg/mL
B12: 19G10 chimeric llama-human mAb (antibody, human IgG1, V domains shown)
VH: EVQLQESGGGVVQPGGSLRLSCAASGFTFDDYAMSWVRQAPGKGLEWVSSIYMYDSSTYYADSVKGRFTISTDNAKNTVYLQMNSLKSEDTAVYYCAKDINRSYGSSWSHFGPIFSSWGQGTQVTVSS
VL: NFMLTQPSAVSVSLGQTARITCQGGYYTHWYQQKPGQAPVLVIYVNNNRPSGIPERFSGSSSGNTATLTISGAQAEDEAAYYCQSGSSSTIPVFGGGTKLTVLG

IC50 (ng/ml), IL-8 secretion in Raji / HT1080-CD27 co-culture assay [1]: 517 ng/mL
binding result [6]: no binding (tested: 10 µg/ml (text))
IC50 [3]: 1.4 µg/mL
B13: 9E1 chimeric llama-human mAb (antibody, human IgG1, V domains shown)
VH: B12 VH
VL: QAVVTQEPSLSVSPGGTVTLTCGLTSGSVTSSNYPDWYQQTPGQAPRLLIYNTNSRHSGVPSRFSGSISGNKAALTITGAQPEDEADYYCNLYMGSGGSKVFGGGTKLTVLG

binding result [4]: binds
B14: human-mouse CD70 chimera chim-3 (Flag-TNC-CD70) (ligand, not shown: small tags and cut ends)
chain: HPEPHTAELQLNLTVPRKDPTLRWGAGPALGRSFTHGPELEEGHLRIHQDGLYRLHIQVTLANCSSPGSTLQHRATLAVGICSPASRSISLLRLSFHQGCTIASQRLTPLARGDTLCTNLTGTLLPSRNTDETFFGVQWVRP
notes: also called chimera 3

IC50 (ng/ml), IL-8 secretion in Raji / HT1080-CD27 co-culture assay [1]: 54 ng/mL
EC50 (read off the curve) [2]: ~0.06 µg/mL
IC50 [3]: 0.254 µg/mL
B15: 4D2 chimeric llama-human mAb (antibody, human IgG1, V domains shown)
VH: QVQLQESGPGLVKPSQTLSLACTVSGGSITTSYYYWSWIRQPPGKGLEWMGAIGSRGSTYYSPSLKTRTSISRDTSKNQFTLQLSSVTPEDTAVYYCARVTGEITYNSGSYYYTLNLFDYWGQGTQVTVSS
VL: QSVLTQPPSLSASPGSSVRLTCTLSSGNSVGNYDISWYQQKAGSPPRYLLYYYSDSYKNQGSGVPSRFSGSKDPSANAGLLLISGLQAEDEADYYCSVSNSGTYKPVFGGGSKLTVLG

binding result [4]: binds
B16: human-mouse CD70 chimera chim-4 (Flag-TNC-CD70) (ligand, not shown: small tags and cut ends)
chain: HPEPHTAELQLNLTVPRKDPTLRWGAGPALGRSFTHGPELEEGHLRIHQDGLYRLHIQVTLANCSSPGSTLQHRATLAVGICSPAAHGISLLRGRFGQDCTVALQRLTYLVHGDVLCTNLTGTLLPSRNTDETFFGVQWVRP
notes: also called chimera 4

binding result [6]: no binding (tested: 10 µg/ml (text))
B17: 6D5 (antibody, V domains shown)
VH: EVQLVQPGAELRKPGASVKVSCKASGYTFTSYYIDWVRQAPGQGLEWMGRIDPEDGGTKYAQKFQGRVTFTADASTSTAYVELSSLRSEDTAVYYCASRRRDFDYWGQGTQVTVSS
VL: QSALTQPSAVSVSLGQTARITCQGGNARFSSFAWYQQKPGQAPVQVIYYNTNRPSGIPARFSGSSSGGAATLTISGAQAEDEADYYCQSYESGNYVFGGGTTLTVLG
notes: the mAb format of 6D5 is not described in the text; also called 6D5 mAb
